Tests used:
CC(=O)NCCCNCCCCNCCCN = assay: steady-state oxygen consumption, oxygen electrode; type: biochemical, Saccharomyces cerevisiae; conditions: 1.2 mM oxygen, pH 9.0, 10% glycerol, 25 °C, pH 9.0
NCCCNCCCCNCCCN = assay: steady-state oxygen consumption, oxygen electrode; type: biochemical, Saccharomyces cerevisiae; conditions: 1.2 mM oxygen, pH 9.35, 10% glycerol, 25 °C, pH 9.35

Row | Substance | Km (CC(=O)NCCCNCCCCNCCCN) | kcat (CC(=O)NCCCNCCCCNCCCN) | kcat/Km (CC(=O)NCCCNCCCCNCCCN) | Km (NCCCNCCCCNCCCN) | kcat (NCCCNCCCCNCCCN) | kcat/Km (NCCCNCCCCNCCCN)
1 | Fms1 (Saccharomyces cerevisiae S288C; N195A) | 104 ± 14 µM | 8.1 ± 0.2 s⁻¹ | 78000 ± 13000 M⁻¹ s⁻¹ | 127 ± 27 µM | 4.9 ± 0.2 s⁻¹ | 38500 ± 8300 M⁻¹ s⁻¹
2 | Fms1 (Saccharomyces cerevisiae S288C; D94N) | 30 ± 5 µM | 9.7 ± 0.2 s⁻¹ | 320000 ± 50000 M⁻¹ s⁻¹ | 320 ± 88 µM | 2.0 ± 0.3 s⁻¹ | 

— PMC3548949
